Assay results: patent US20220112276A1 (Janssen / Centocor, published 2022)
Residue numbers refer to the chain shown, from its start. Each block holds one binder with its values, some of them ahead of it.

Tests used:
Experiment in all cases: SPR, VHH captured by anti-Fc, ECD analyte
[1] = target: T1, cynomolgus monkey pIgR extracellular domain (cynomolgus monkey, UniProt A0A2K5WMU9 19-638)
T1 construct: extracellular domain
Method in brief: (§1)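 Single-cycle kinetics: ECD analyte from 30 nM, 3-fold series, low to high, with 30 min off-rate monitoring, over VHH captured at 0.5 ug/ml (~200-300 RU). HBSP plus 100 ug/ml BSA at 30 μL/min. Reference cell and buffer blank subtracted; global 1:1 Langmuir fit gave kon, koff, KD.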

[2] = target: T2, mouse pIgR extracellular domain (ECD) (mouse, UniProt O70570 19-645)
T2 construct: Bought from R&D Systems (Cat 2800-PG-050); also called mpIgR ECD
T2 sequence: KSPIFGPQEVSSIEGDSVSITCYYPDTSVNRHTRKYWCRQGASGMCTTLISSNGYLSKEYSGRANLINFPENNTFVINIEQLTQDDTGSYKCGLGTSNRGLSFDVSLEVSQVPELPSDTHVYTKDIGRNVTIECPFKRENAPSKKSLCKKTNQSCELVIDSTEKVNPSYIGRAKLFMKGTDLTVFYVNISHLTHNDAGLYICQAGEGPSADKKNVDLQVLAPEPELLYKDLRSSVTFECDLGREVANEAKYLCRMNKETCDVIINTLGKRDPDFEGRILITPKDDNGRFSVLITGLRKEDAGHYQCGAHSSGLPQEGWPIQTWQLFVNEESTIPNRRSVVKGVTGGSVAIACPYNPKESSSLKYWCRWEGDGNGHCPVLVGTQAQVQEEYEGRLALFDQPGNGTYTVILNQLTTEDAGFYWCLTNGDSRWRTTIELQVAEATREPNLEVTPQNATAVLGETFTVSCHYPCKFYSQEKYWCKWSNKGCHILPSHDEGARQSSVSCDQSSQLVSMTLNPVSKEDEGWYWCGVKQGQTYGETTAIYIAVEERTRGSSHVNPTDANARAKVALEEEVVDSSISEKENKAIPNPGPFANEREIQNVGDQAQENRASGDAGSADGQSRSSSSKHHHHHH
Method in brief: as §1

[3] = target: T3, rat pIgR extracellular domain (rat, UniProt P15083 19-643)
T3 construct: extracellular domain
T3 sequence (looked up): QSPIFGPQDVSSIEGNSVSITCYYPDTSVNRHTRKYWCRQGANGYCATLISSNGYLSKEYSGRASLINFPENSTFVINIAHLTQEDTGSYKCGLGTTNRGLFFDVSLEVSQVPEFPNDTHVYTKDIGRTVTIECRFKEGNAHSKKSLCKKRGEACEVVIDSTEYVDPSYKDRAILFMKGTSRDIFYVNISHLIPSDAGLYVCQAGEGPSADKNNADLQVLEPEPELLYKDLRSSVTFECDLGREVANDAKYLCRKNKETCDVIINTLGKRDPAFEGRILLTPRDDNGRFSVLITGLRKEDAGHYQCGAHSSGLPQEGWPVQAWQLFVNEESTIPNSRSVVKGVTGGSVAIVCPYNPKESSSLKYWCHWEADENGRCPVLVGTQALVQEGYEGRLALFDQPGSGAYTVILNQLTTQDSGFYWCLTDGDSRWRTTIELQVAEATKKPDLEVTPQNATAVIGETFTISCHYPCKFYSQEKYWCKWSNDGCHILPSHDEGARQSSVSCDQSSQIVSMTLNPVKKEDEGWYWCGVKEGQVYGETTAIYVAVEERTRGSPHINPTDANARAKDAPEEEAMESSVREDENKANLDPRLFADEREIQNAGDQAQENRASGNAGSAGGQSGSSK
Method in brief: as §1

[4] = target: T4, human pIgR extracellular domain (ECD) (human, UniProt P01833 19-638)
T4 construct: Bought from R&D Systems (Cat 2717-PG-050); also called hpIgR ECD
T4 sequence (P01833 other isoform, or with tags, fused parts or gaps): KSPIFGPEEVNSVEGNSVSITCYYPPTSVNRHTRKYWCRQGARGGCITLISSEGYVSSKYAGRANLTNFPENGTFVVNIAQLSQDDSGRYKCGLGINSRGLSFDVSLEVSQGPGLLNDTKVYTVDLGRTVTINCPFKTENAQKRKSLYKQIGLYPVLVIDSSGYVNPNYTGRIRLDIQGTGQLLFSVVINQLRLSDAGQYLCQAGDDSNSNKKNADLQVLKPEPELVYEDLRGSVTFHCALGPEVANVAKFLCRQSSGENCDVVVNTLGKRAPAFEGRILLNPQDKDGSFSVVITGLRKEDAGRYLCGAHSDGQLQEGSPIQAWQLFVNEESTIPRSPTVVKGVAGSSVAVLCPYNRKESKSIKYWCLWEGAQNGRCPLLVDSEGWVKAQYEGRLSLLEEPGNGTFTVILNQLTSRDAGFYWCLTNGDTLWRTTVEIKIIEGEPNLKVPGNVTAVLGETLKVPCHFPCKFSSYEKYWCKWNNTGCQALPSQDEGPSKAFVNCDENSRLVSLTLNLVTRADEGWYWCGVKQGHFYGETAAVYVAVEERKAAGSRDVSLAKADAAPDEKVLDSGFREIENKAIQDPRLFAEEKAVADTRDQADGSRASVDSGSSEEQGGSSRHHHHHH
Method in brief: as §1

T1 sequence (A0A2K5WMU9 entry or part of it): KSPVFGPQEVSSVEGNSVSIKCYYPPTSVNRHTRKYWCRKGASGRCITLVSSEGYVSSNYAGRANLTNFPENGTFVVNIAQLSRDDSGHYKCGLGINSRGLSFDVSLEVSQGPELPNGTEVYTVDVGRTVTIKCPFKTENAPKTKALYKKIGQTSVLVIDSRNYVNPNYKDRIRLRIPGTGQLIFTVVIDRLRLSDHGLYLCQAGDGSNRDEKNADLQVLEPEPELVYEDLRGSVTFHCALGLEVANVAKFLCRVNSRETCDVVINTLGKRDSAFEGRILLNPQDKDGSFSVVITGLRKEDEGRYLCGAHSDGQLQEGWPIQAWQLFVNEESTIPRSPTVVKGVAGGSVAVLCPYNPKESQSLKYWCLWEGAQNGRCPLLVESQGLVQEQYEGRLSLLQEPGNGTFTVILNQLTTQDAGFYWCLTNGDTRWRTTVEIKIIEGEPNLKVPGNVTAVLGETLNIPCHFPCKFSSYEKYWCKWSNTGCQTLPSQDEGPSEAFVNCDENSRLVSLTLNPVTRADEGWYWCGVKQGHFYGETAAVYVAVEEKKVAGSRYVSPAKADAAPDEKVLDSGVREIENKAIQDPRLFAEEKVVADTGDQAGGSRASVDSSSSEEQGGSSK

B1: 01G07R2L VHH Mono-Fc (Fc fusion)
chain: QVQLVESGGGLVQPGGSLRLSCVASGLPFSSSRMAWFAQAPGKEREFVAAIGWRGRTSYKYYADSVKGRFTVSGDNAKKTLDLQMKDLKPEDTALYFCAAHPNDDGDPRISGNYQYWGQGTQVTVSSSPAPELLGGPSVFLFPPKPKDTLMISRTPEVTCVVVDVSHEDPEVKFNWYVDGVEVHNAKTKPREEQYNSTYRVVSVLTVLHQDWLNGKEYKCKVSNKALPAPIEKTISKAKGQPREPQVYTKPPSREEMTKNQVSLSCLVKGFYPSDIAVEWESNGQPENNYKTTVPVLDSDGSFRLASYLTVDKSRWQQGNVFSCSVMHEALHNHYTQKSLSLSPGK
Kd [1]: 4.02 nM
Kd [2]: 0.948 nM
Kd [3]: 1.44 nM
Kd [4]: 3.32 nM

B2: 01C03R3LS VHH Mono-Fc (Fc fusion)
chain: B1 chain with Q1E, F29G, G52A, A63S, K79R, K89N
Kd [1]: 2.84 nM
Kd [2]: 0.8 nM
Kd [3]: 3.02 nM
Kd [4]: 4.87 nM

B3: 01C12R2 VHH Mono-Fc (Fc fusion)
chain: EVQLVESGGGLVQAGGSLRLSCAASGRTFGSYSMGWFRQAPGKEREFVGAISWSGSSTYKYYEDSVKGRFTISRDNAKNTVPLQMNSLKPEDTGVYFCGGTMERRDPRRTSAYDYWGQGTLVTVSSSPAPELLGGPSVFLFPPKPKDTLMISRTPEVTCVVVDVSHEDPEVKFNWYVDGVEVHNAKTKPREEQYNSTYRVVSVLTVLHQDWLNGKEYKCKVSNKALPAPIEKTISKAKGQPREPQVYTKPPSREEMTKNQVSLSCLVKGFYPSDIAVEWESNGQPENNYKTTVPVLDSDGSFRLASYLTVDKSRWQQGNVFSCSVMHEALHNHYTQKSLSLSPGK
Kd [1]: 23 nM
Kd [2]: 4.76 nM
Kd [3]: 14.1 nM
Kd [4]: 21.4 nM

B4: 01B04R3L VHH Mono-Fc (Fc fusion)
chain: EVQLVESGGGLVQAGDSLRLSCAASGRTFTTYVMGWFRQAPGKEREFVATIAWSGSTNYKYYADSVKGRFTISRDNAKNTVYLRMNSLKPEDTAVYYCAASTVLTDPRRLNEYANWGQGTLVTVSSSPAPELLGGPSVFLFPPKPKDTLMISRTPEVTCVVVDVSHEDPEVKFNWYVDGVEVHNAKTKPREEQYNSTYRVVSVLTVLHQDWLNGKEYKCKVSNKALPAPIEKTISKAKGQPREPQVYTKPPSREEMTKNQVSLSCLVKGFYPSDIAVEWESNGQPENNYKTTVPVLDSDGSFRLASYLTVDKSRWQQGNVFSCSVMHEALHNHYTQKSLSLSPGK
Kd [1]: 5.94 nM
Kd [2]: 9.2 nM
Kd [3]: 4.71 nM
Kd [4]: 13.8 nM

B7: 01E03R3 VHH Mono-Fc (Fc fusion)
chain: QVQLVESGGGLVQTGGSLRLSCAASGRTFSVYRVGWFRQAPGKEREFVAAVIWSGASTYKYAADSVKGRFTISRDNAENTVYLQMNSLKPEDTAVYYCAADPLGLPGPDVRVEGGYRHWGQGTLVTVSSSPAPELLGGPSVFLFPPKPKDTLMISRTPEVTCVVVDVSHEDPEVKFNWYVDGVEVHNAKTKPREEQYNSTYRVVSVLTVLHQDWLNGKEYKCKVSNKALPAPIEKTISKAKGQPREPQVYTKPPSREEMTKNQVSLSCLVKGFYPSDIAVEWESNGQPENNYKTTVPVLDSDGSFRLASYLTVDKSRWQQGNVFSCSVMHEALHNHYTQKSLSLSPGK
Kd [1]: 6.14 nM
Kd [2]: 10.4 nM
Kd [3]: 24.9 nM
Kd [4]: 2.95 nM

B8: 01B02R2L VHH Mono-Fc (Fc fusion)
chain: EVQLVESGGGLVQAGGSLKLACAASGLTFSSYRMGWFRQAPGKEREFVAAIDWNGRGTYYRYYADSVKGRFTISRDNAKNTMCLQMNSLKPEDTAVYYSAIDSRTSIDPRTSGHYRYWGQGTLVTVSSSPAPELLGGPSVFLFPPKPKDTLMISRTPEVTCVVVDVSHEDPEVKFNWYVDGVEVHNAKTKPREEQYNSTYRVVSVLTVLHQDWLNGKEYKCKVSNKALPAPIEKTISKAKGQPREPQVYTKPPSREEMTKNQVSLSCLVKGFYPSDIAVEWESNGQPENNYKTTVPVLDSDGSFRLASYLTVDKSRWQQGNVFSCSVMHEALHNHYTQKSLSLSPGK
Kd [1]: 14.2 nM
Kd [2]: 4.47 nM
Kd [3]: 13.4 nM
Kd [4]: 20.2 nM

The next lines start with the values.

Kd [1]: 3.97 nM
Kd [2]: 3.76 nM
Kd [3]: 1.36 nM
Kd [4]: 5.37 nM
B5: 01E04R3LS VHH Mono-Fc (Fc fusion)
chain: B4 chain with E44D, A52T, S65P, R84Q, A99T, A100S, L104V, R109K, N115Y

Kd [1]: 3.17 nM
Kd [2]: 264 nM
Kd [3]: 4.2 nM
Kd [4]: 12.5 nM
B6: 01F12R2 VHH Mono-Fc (Fc fusion)
chain: EVQLVESGGGLVQPGGSLRLSCAASGRTFSSYTMGWFRQAPGEEREFVSAISWSSDGTYYKYYTDTVKGRFTISRDNAETTVHLQMNSLKPEDTAVYYCAASSSGTYGDPRSEREYRYWGQGTLVTVSSSPAPELLGGPSVFLFPPKPKDTLMISRTPEVTCVVVDVSHEDPEVKFNWYVDGVEVHNAKTKPREEQYNSTYRVVSVLTVLHQDWLNGKEYKCKVSNKALPAPIEKTISKAKGQPREPQVYTKPPSREEMTKNQVSLSCLVKGFYPSDIAVEWESNGQPENNYKTTVPVLDSDGSFRLASYLTVDKSRWQQGNVFSCSVMHEALHNHYTQKSLSLSPGK

Kd [1]: 566 nM
Kd [2]: 985 nM
Kd [3]: 70.8 nM
Kd [4]: 0.397 nM
B9: 01F09R3 VHH Mono-Fc (Fc fusion)
chain: QVQLVESGGGLAQAGGSLTLSCAASGTAAGIDVMGWYRQTPGNSREFVARIFSNDVTHYADSVTGRFTLSRTQDKNTVSLQMNSLKPDDTGVYYCNARIWTGSTTVDYWGQGTQVTVSSSPAPELLGGPSVFLFPPKPKDTLMISRTPEVTCVVVDVSHEDPEVKFNWYVDGVEVHNAKTKPREEQYNSTYRVVSVLTVLHQDWLNGKEYKCKVSNKALPAPIEKTISKAKGQPREPQVYTKPPSREEMTKNQVSLSCLVKGFYPSDIAVEWESNGQPENNYKTTVPVLDSDGSFRLASYLTVDKSRWQQGNVFSCSVMHEALHNHYTQKSLSLSPGK

Kd [1]: 34.4 nM
Kd [2]: 1.57 nM
Kd [3]: 8.05 nM
Kd [4]: 26.2 nM
B10: 01F03R2LS VHH Mono-Fc (Fc fusion)
chain: EVQLVESGGGLVQAGDSLRLSCAASGRTGSSGAMGWFRQGPGKEREFVAALMWRNTVTYKYYEDSVKGRFTISRDNAKNTAYLQMNSLKPEDTAVYYCAADPDTYGDPRNSGAYDYWGQGTLVTVSSSPAPELLGGPSVFLFPPKPKDTLMISRTPEVTCVVVDVSHEDPEVKFNWYVDGVEVHNAKTKPREEQYNSTYRVVSVLTVLHQDWLNGKEYKCKVSNKALPAPIEKTISKAKGQPREPQVYTKPPSREEMTKNQVSLSCLVKGFYPSDIAVEWESNGQPENNYKTTVPVLDSDGSFRLASYLTVDKSRWQQGNVFSCSVMHEALHNHYTQKSLSLSPGK

Kd [1]: 16.5 nM
Kd [2]: 9.02 nM
Kd [3]: 1.83 nM
Kd [4]: 0.094 nM
B11: 03C05R3 VHH Mono-Fc (Fc fusion)
chain: EVQLVESGGGLVKAEGSLRLSCVASTSIASINVMGWYRQAPGKERELVARISGGGITHYAESVEGRFTISRDNAKNTVHLQMNGLKPEDTAAYYCKADVFASSGHVTTYWGQGTLVTVSSSPAPELLGGPSVFLFPPKPKDTLMISRTPEVTCVVVDVSHEDPEVKFNWYVDGVEVHNAKTKPREEQYNSTYRVVSVLTVLHQDWLNGKEYKCKVSNKALPAPIEKTISKAKGQPREPQVYTKPPSREEMTKNQVSLSCLVKGFYPSDIAVEWESNGQPENNYKTTVPVLDSDGSFRLASYLTVDKSRWQQGNVFSCSVMHEALHNHYTQKSLSLSPGK
